Laboratory results: publication PMC8904551

How the values were obtained:
[1] = biological target: N-terminally biotinylated Gαs-peptide (bio-Spep); test: pull-down; affinity sequestration as above, with 10 µM Qpep (Gαq peptide) added to the 30 µM bio-Spep; 100 µM isoproterenol; streptavidin Dynabeads; FRET buffer + 0.1 mg/mL BSA
[2] = biological target: N-terminally biotinylated Gαs-peptide (bio-Spep); test: pull-down; affinity sequestration: β2AR-mCer native membranes with 100 µM isoproterenol and 30 µM bio-Spep, 5 min at room temperature, then streptavidin Dynabeads for 5 min; fraction bound = 1 - fraction of mCerulean counts in the supernatant; FRET buffer + 0.1 mg/mL BSA
[3] = biological target: β2 adrenergic receptor, the receptor part of the β2AR-Spep SPASM sensor (UniProt P07550); test: FRET or BRET; steady-state ΔFRET of the β2AR-Spep SPASM sensor in native HEK293T membranes; 100 µM clenbuterol (partial agonist) against buffer, 5 min, 25 °C, FRET buffer; both partners on one chain
[4] = biological target: β2 adrenergic receptor, the receptor part of the β2AR-Spep SPASM sensor (UniProt P07550); test: FRET or BRET; steady-state ΔFRET of the β2AR-Spep SPASM sensor in native HEK293T membranes; 100 µM clenbuterol with 30 µM soluble Qpep (Gαq peptide), 5 min, 25 °C, FRET buffer; both partners on one chain
[5] = biological target: β2 adrenergic receptor, the receptor part of the β2AR-Spep SPASM sensor (UniProt P07550); test: FRET or BRET; steady-state ΔFRET of the β2AR-Spep SPASM sensor in native HEK293T membranes; 100 µM isoproterenol with 30 µM soluble Qpep (Gαq peptide), 5 min, 25 °C, FRET buffer; both partners on one chain
[6] = biological target: β2 adrenergic receptor, the receptor part of the β2AR-Spep SPASM sensor (UniProt P07550); test: FRET or BRET; stopped-flow decay of the FRET ratio (mCit/mCer) of the β2AR-Spep SPASM sensor in native HEK293T membranes, preincubated with 100 µM isoproterenol and quenched with 10 µM Nb6B9; FRET buffer; triple exponential fit with one decay constrained to the decay without Nb6B9; both partners on one chain

| fraction of receptor bound, with 10 µM Qpep [1] | fraction of receptor bound [2] | fold weaker interaction (ΔFRET) with clenbuterol than with isoproterenol [3] | fold increase of the interaction (ΔFRET) with Qpep against without, clenbuterol [4] | fold increase of the interaction (ΔFRET) with Qpep against without, isoproterenol [5] | koff, strong interaction state (slow decay) [6] | koff, weak interaction state (fast decay) [6] | Substance |
| --- | --- | --- | --- | --- | --- | --- | --- |
| 17% | 5% | – | – | – | – | – | β2AR-mCerulean (from UniProt P07550 1-413) (receptor) |
| – | – | 6 fold | 5 fold | 2 fold | 0.006 s⁻¹ | 0.3 s⁻¹ | Gαs-peptide (Spep), the 27 amino acid Gα C-terminal peptide of the β2AR-Spep SPASM sensor |
